# Results reported in US20150191542A1 (INNATE PHARMA S A, published 2015).
# Like-named read-outs stand apart in the source and are kept apart here.
# T1: MICA*001 expressed on transfected cells (human)
# T1 construct: the cells carry the complete allele; also called C1R-MICA*001; C1R-MICA*01
# T1 chain: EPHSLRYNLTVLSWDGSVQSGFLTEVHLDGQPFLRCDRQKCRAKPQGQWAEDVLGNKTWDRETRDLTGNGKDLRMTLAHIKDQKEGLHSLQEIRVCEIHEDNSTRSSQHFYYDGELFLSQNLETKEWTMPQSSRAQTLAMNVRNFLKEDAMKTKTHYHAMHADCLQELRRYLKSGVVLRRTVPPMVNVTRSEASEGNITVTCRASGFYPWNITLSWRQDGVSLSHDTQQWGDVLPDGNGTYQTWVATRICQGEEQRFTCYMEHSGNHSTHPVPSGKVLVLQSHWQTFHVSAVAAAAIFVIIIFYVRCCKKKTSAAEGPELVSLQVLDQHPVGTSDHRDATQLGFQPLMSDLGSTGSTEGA
# T2: recombinant human MICA extracellular domain recombinant-Fc protein (MICA*019 allele) (human, UniProt Q29983 24-297)
# T2 construct: Bought from R&D Systems; also called MICA*019-Fc; MICA-Fc; not shown: Fc part of the bought fusion protein (R&D Systems)
# T2 chain: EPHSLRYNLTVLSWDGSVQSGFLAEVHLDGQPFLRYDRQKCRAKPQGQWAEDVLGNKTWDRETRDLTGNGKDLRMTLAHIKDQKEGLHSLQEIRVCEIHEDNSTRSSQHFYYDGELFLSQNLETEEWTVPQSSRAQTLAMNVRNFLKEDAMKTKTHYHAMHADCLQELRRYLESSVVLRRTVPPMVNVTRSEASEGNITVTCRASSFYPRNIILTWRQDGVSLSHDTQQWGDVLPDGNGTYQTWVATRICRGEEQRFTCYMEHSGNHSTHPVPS
# T3: MICA*004 expressed on C1R transfectant cells (human, UniProt Q29983 24-297, Glycosylated on cells; the letters do not carry this.)
# T3 construct: also called C1R-MICA*004; C1R-MICA*04
# T3 chain: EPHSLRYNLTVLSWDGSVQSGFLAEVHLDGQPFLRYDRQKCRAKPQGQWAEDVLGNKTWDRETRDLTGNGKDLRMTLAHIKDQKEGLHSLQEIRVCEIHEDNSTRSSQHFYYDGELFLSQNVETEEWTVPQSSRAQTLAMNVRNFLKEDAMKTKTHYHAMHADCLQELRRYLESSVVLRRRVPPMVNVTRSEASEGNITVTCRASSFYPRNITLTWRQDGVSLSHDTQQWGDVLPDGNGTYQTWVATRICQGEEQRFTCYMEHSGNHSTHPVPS
# T4: MICA*007 expressed on C1R transfectant cells (human, UniProt Q29983 24-297, Glycosylated on cells; the letters do not carry this.)
# T4 construct: also called C1R-MICA*007; C1R-MICA*07
# T4 chain: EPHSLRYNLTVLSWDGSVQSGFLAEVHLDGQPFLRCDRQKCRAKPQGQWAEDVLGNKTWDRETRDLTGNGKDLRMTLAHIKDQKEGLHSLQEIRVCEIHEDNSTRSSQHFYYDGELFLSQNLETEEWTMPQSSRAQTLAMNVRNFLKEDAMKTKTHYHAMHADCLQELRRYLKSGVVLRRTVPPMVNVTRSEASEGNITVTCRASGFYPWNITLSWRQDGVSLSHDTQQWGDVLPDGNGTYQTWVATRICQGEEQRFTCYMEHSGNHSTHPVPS
# T5: MICA*008 expressed on C1R transfectant cells (human, UniProt Q29983 24-297, Glycosylated on cells; the letters do not carry this.)
# T5 construct: also called C1R-MICA*008; C1R-MICA*08
# T5 chain: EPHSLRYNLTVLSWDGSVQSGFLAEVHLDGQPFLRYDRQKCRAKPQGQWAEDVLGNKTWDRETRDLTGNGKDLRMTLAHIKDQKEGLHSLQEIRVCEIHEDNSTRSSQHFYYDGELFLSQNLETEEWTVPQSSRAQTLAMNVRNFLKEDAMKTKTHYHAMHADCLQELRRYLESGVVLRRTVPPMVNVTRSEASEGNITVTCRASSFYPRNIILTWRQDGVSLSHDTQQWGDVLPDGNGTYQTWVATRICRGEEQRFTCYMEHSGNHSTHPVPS
# B1: CHG1-M-MIA-10F3 (antibody, V domains shown)
# VH: QVQLQQSAAELARPGASVKMSCKASGYTFTSYTMHWVKQRPGQGLEWIGYINPSSGYTEYNQKFKDKTTLTVDKSSTTSYMQLSSLTSDNSAVYYCARGGDWDVDWFVYWGQGTLVTVSA
# VL: QIVLTQSPAIMSASPGEKVTITCSASSSISYMHWFQQKPGTSPKLWIYSTSKLASGVPARFSGSGSGTSHSLTISRMEAEDAATYYCQHRSTYPFTFGSGTKLEIK
# B2: CHG1-M-MIA-12A10 (antibody, V domains shown)
# VH: QVQLQQSGADLVRPGASVRLSCRASGYSFTNYWMNWVKQRPGQGLEWIGMIHPSDSETRLNQKFKDKATLTVDKSSNTAYMQLSSPTSEDSAIYYCARDDFFTMDYWGQGTSVTVSS
# VL: DILLTQSPAILSVSPGERVSFSCRASQNIVTSIHWYQQSTNGSPRLLIKYASESISGIPSRFSGSGSGTDFTLTINSVESEDVADYYCQQSNIWPLTFGAGTKLELK
# B3: CHG1-M-MIA-18E8 (antibody, V domains shown)
# VH: DVQLQESGPDLVNPSQSLSLICTVTGYSITSDYSWHWIRQFPGNKLEWMGNIHYSGRINYNPSLRSRISITRDTSKNQFFLQLISVTTEDTATYYCATRRTFGNFEDYWGQGTTLTVSS
# VL: QIVLSQSPATLSVSPGEKVTMTCRSSSSVNYMHWYQQKPGSSPKPWIYATSTLASGVPARFSGSGSGTSYSLTISRVEAEDAATYYCQQWSSNPLTFGAGTKLELK
# B4: antibody 20C6 (antibody, V domains shown)
# VH: QITLKESGPGILKPSQTLSLTCSFSGFSLSTSGMGVGWIRQPSGKGLEWLAHIWWDDDKYYNPSLKSQLTISKDTSRNQVFLRITSVDTADTATYYCARRTQGYFDYWGQGTTLTVSS
# VL: DIVMTQSPATLSVTPGDRVSLSCRASQSISDYLHWYQQKSHESPRLLIKYASQSISGIPSRFSGSGSGSDFTLSINSVEPEDVGVYYCQNGHSFPWTFGGGTKLEIK
# notes: Murine hybridoma antibody of IgG1 isotype as tested
# B5: CHG1-M-MIA-15F9 (antibody, V domains shown)
# VH: DVQLQESGPDLVKPSQSLSLTCTVTGYSITSGYSWHWIRQFPGNKLEWMGFIHYSGSTDYNPSLKSRISLTRDTSKNQFFLQLNSVSTEDTATYYCAKDYGHWYFDVWGAGTTVTVSS
# VL: SIVMTQTPKFLLVSAGDRVTITCKASQSVSYDVAWYQQKPGQSPKLLIFYASNRYTGVPARFTGSGYGTDFTFTISTVQAEDLAVYFCQQDYSSLTFGAGTKLELK
# Assays:
# [1] = target: T1, MICA*001 expressed on transfected cells; assay: flow cytometry, MFI against antibody concentration on C1R-MICA*01 cells
# Description: (§1) The binding of antibodies obtained from the first and second immunization series (including 9C10, 20C6 and 16A8) were tested for binding to MICA-expressing CR1 transfectant cells C1R-MICA*001, C1R-MICA*004, C1R-MICA*007 and C1R-MICA*008 (Pr. A. Steinle, Eberhard-Karls University Tuebingen, Germany) described in Salih et al. (2003) Blood 102(4): […]. Binding was analyzed by flow cytometry.
# (§2) Cells were harvested and stained in PBS 1×/BSA 0,2%/EDTA 2 mM buffer during 30 minutes at 4° C. using a dose-range of the anti-MICA mAbs. After two washes in staining buffer, cells were stained for 30 min at 4° C. with goat anti-mouse (H+L)-PE polyclonal antibodies (1/200). After two washes, stainings were acquired on a BD FACS Canto II and analyzed using the FlowJo software.
# [2] = target: T2, recombinant human MICA extracellular …; assay: SPR Biacore T100 (FIG. 1)
# Description: The binding of 9C10, 20C6 and 16A8 to either recombinant human MICA extracellular domain recombinant protein monomers or dimers (MICA*019 allele-Fc protein or MICA*001-His protein) as well as other NKG2D ligands MICB and ULBP1-2 was analyzed by Surface Plasmon Resonance (SPR) using a Biacore T100 apparatus to obtain monovalent and bivalent affinity, respectively. Biotinylated anti-MICA antibodies were injected at a constant rate of 10 μl/min over the Sensor Chip CAP flow-cells comprising Biotin CAPture Reagent. MICA-Fc or MICA-His protein, MICB-Fc, ULBP1-Fc or ULBP2-Fc protein is then injected successively (range of concentrations between 0.01-100 nM), with regeneration between injections, and in increasing order over two flowcells simultaneously. Curves are fitted using Biacore T100 Evaluation software.
# (a) General Biacore T100 methods. SPR measurements were performed on a Biacore T100 apparatus (Biacore GE Healthcare) at 25° C. In all Biacore experiments HBS-EP+ buffer (Biacore GE Healthcare) or 10 mM sodium acetate pH 7.4, 150 mM NaCl, 0.05% P20 served as running buffer and sensorgrams were analyzed with Biaevaluation 4.1 and Biacore T100 Evaluation software. Recombinant human and mouse TLR3 were purchased from R&D Systems.
# [3] = target: T1, MICA*001 expressed on transfected cells; assay: flow cytometry on C1R-MICA*001 cells, 3-parameter logistic fit
# Description: as §1, §2
# (§3) Antibodies 9C10, 20C6 and 16A8 bound to each of the C1R-MICA*001, C1R-MICA*004, C1R-MICA*007 and C1R-MICA*008 cells (see FIGS. 3A, 3B and 3C for antibodies 9C10, 20C6 and 16A8 respectively). […] EC50 values are shown in Table C in μg/ml (calculated using a 3-parameter logistic fit).
# [4] = target: T3, MICA*004 expressed on C1R transfectant …; assay: flow cytometry on C1R-MICA*004 cells, 3-parameter logistic fit
# Description: as §1, §2, §3
# [5] = target: T4, MICA*007 expressed on C1R transfectant …; assay: flow cytometry on C1R-MICA*007 cells, 3-parameter logistic fit
# Description: as §1, §2, §3
# [6] = target: T5, MICA*008 expressed on C1R transfectant …; assay: flow cytometry on C1R-MICA*008 cells, 3-parameter logistic fit
# Description: as §1, §2, §3
# [7] = target: T3, MICA*004 expressed on C1R transfectant …; assay: flow cytometry, MFI against antibody concentration on C1R-MICA*04 cells
# Description: as §1, §2
# [8] = target: T4, MICA*007 expressed on C1R transfectant …; assay: flow cytometry, MFI against antibody concentration on C1R-MICA*07 cells
# Description: as §1, §2
# [9] = target: T5, MICA*008 expressed on C1R transfectant …; assay: flow cytometry, MFI against antibody concentration on C1R-MICA*08 cells
# Description: as §1, §2
# [10] = target: T3, MICA*004 expressed on C1R transfectant …; assay: flow cytometry, MFI against antibody concentration on C1R-MICA*04 cells
# [11] = target: T4, MICA*007 expressed on C1R transfectant …; assay: flow cytometry, MFI against antibody concentration on C1R-MICA*07 cells
# [12] = target: T5, MICA*008 expressed on C1R transfectant …; assay: flow cytometry, MFI against antibody concentration on C1R-MICA*08 cells
binder,measurement,setting,value
B1,EC50 (read off the curve),[1],~0.5 µg/mL
B2,EC50 (read off the curve),[1],~1 µg/mL
B3,EC50 (read off the curve),[1],~0.5 µg/mL
B4,binding result,[2],binds
same,EC50,[3],0.3 µg/mL
same,EC50,[4],0.08 µg/mL
same,EC50,[5],1.58 µg/mL
same,EC50,[6],0.17 µg/mL
same,EC50 (read off the curve),[1],~0.3 µg/mL
same,EC50 (read off the curve),[7],~0.07 µg/mL
same,EC50 (read off the curve),[8],~0.5 µg/mL
same,EC50 (read off the curve),[9],~0.2 µg/mL
B5,EC50 (read off the curve),[10],~0.5 µg/mL
same,binding result,[11],binds
same,EC50 (read off the curve),[12],~0.8 µg/mL
